This note sets out measurements from the supplement of paper PMC12458215.

± gives the uncertainty stated by the source.

The subject of this series is HEK293T. Kind of series: plasma membrane surface immunostaining intensity (anti-HA, deep receptor scanning) (arbitrary fluorescence units); higher = higher plasma membrane expression.

As for “MKMLTRLQVLTLALFSKGFLLSLGDHNFLRREIKIEGDLVLGGLFPINEKGTGTEECGRINEDRGIQRLEAMLFAIDEINKDDYLLPGVKLGVHILDTCSRDTYALEQSLEFVRASLTKVDEAEYMCPDGSYAIQENIPLLIAGVIGGSYSSVSIQVANLLRLFQIPQISYASTSAKLSDKSRYDYFARTVPPDFYQAKAMAEILRFFNWTYVSTVASEGDYGETGIEAFEQEARLRNICIATAEKVGRSNIRKSYDSVIRELLQKPNARVVVLFMRSDDSRELIAAASRANASFTWVASDGWGAQESIIKGSEHVAYGAITLELASQPVRQFDRYFQSLNPYNNHRNPWFRDFWEQKFQCSLQNKRNHRRVCDKHLAIDSSNYEQESKIMFVVNAVYAMAHALHKMQRTLCPNTTKLCDAMKILDGKKLYKDYLLKINFTAPFNPNKDADSIVKFDTFGDGMGRYNVFNFQNVGGKYSYLKVGHWAETLSLDVNSIHWSRNSVPTSQCSDPCAPNEMKNMQPGDVCCWICIPCEPYEYLADEFTCMDCGSGQWPTADLTGCYDLPEDYIRWEDAWAIGPVTIACLGFMCTCMVVTVFIKHNNTPLVKASGRELCYILLFGVGLSYCMTFFFIAKPSPVICALRRLGLGSSFAICYSALLTKTNCIARIFDGVKNGAQRPKFISPSSQVFICLGLILVQIVMVSVWLILEAPGTRRYTLAEKRETVILKCNVKDSSMLISLTYDVILVILCTVYAFKTRKCPENFNEAKFIGFTMYTTCIIWLAFLPIFYVTSSDYRVQTTTMCISVSLSGFVVLGCLFAPKVHIILFQPQKNVVTHRLHLNRFSVSGTGTTYSQSSASTYVPTVCNGREVLDSTTSSL [GRM3]”, under “GPCR class: C”, the “plasma membrane surface immunostaining intensity” value came out at 6390 ± 16.

For the sequence “MKSDNHSFLGDSPKAFILLGVSDRPWLELPLFVVLLLSYVLAMLGNVAIILASRVDPQLHSPMYIFLSHLSFLDLCYTTTTVPQMLVNMGSSQKTISYGGCTVQYAVFHWLGCTECIVLAAMALDRYVAICKPLHYAVLMHRALCQQLVALAWLSGFGNSFVQVVLTVQLPFCGRQVLNNFFCEVPAVIKLSCADTAVNDTILAVLVAFFVLVPLALILLSYGFIARAVLRIQSSKGRHKAFGTCSSHLMIVSLFYLPAIYMYLQPPSSYSQEQGKFISLFYSIITPTLNPFTYTLRNKDMKGALRRLLARIWRLCG [OR2B11]”, where the note is “GPCR class: A (Olfactory)”, the “plasma membrane surface immunostaining intensity” value came out at 238 ± 84.

With “MKSILDGLADTTFRTITTDLLYVGSNDIQYEDIKGDMASKLGYFPQKFPLTSFRGSPFQEKMTAGDNPQLVPADQVNITEFYNKSLSSFKENEENIQCGENFMDIECFMVLNPSQQLAIAVLSLTLGTFTVLENLLVLCVILHSRSLRCRPSYHFIGSLAVADLLGSVIFVYSFIDFHVFHRKDSRNVFLFKLGGVTASFTASVGSLFLTAIDRYISIHRPLAYKRIVTRPKAVVAFCLMWTIAIVIAVLPLLGWNCEKLQSVCSDIFPHIDETYLMFWIGVTSVLLLFIVYAYMYILWKAHSHAVRMIQRGTQKSIIIHTSEDGKVQVTRPDQARMDIRLAKTLVLILVVLIICWGPLLAIMVYDVFGKMNKLIKTVFAFCSMLCLLNSTVNPIIYALRSKDLRHAFRSMFPSCEGTAQPLDNSMGDSDCLHKHANNAASVHRAAESCIKSTVKIAKVTMSVSTDTSAEAL [CNR1]”, the “plasma membrane surface immunostaining intensity” value (GPCR class: A) was 130 ± 25.

On to “MKSPFYRCQNTTSVEKGNSAVMGGVLFSTGLLGNLLALGLLARSGLGWCSRRPLRPLPSVFYMLVCGLTVTDLLGKCLLSPVVLAAYAQNRSLRVLAPALDNSLCQAFAFFMSFFGLSSTLQLLAMALECWLSLGHPFFYRRHITLRLGALVAPVVSAFSLAFCALPFMGFGKFVQYCPGTWCFIQMVHEEGSLSVLGYSVLYSSLMALLVLATVLCNLGAMRNLYAMHRRLQRHPRSCTRDCAEPRADGREASPQPLEELDHLLLLALMTVLFTMCSLPVIYRAYYGAFKDVKEKNRTSEEAEDLRALRFLSVISIVDPWIFIIFRSPVFRIFFHKIFIRPLRYRSRCSNSTNMESSL [PTGDR]”, for which the “plasma membrane surface immunostaining intensity” value (GPCR class: A) was determined as 6000 ± 81.

As to “MKVGVLWLISFFTFTDGHGGFLGKNDGIKTKKELIVNKKKHLGPVEEYQLLLQVTYRDSKEKRDLRNFLKLLKPPLLWSHGLIRIIRAKATTDCNSLNGVLQCTCEDSYTWFPPSCLDPQNCYLHTAGALPSCECHLNNLSQSVNFCERTKIWGTFKINERFTNDLLNSSSAIYSKYANGIEIQLKKAYERIQGFESVQVTQFRNGSIVAGYEVVGSSSASELLSAIEHVAEKAKTALHKLFPLEDGSFRVFGKAQCNDIVFGFGSKDDEYTLPCSSGYRGNITAKCESSGWQVIRETCVLSLLEELNKNFSMIVGNATEAAVSSFVQNLSVIIRQNPSTTVGNLASVVSILSNISSLSLASHFRVSNSTMEDVISIADNILNSASVTNWTVLLREEKYASSRLLETLENISTLVPPTALPLNFSRKFIDWKGIPVNKSQLKRGYSYQIKMCPQNTSIPIRGRVLIGSDQFQRSLPETIISMASLTLGNILPVSKNGNAQVNGPVISTVIQNYSINEVFLFFSKIESNLSQPHCVFWDFSHLQWNDAGCHLVNETQDIVTCQCTHLTSFSILMSPFVPSTIFPVVKWITYVGLGISIGSLILCLIIEALFWKQIKKSQTSHTRRICMVNIALSLLIADVWFIVGATVDTTVNPSGVCTAAVFFTHFFYLSLFFWMLMLGILLAYRIILVFHHMAQHLMMAVGFCLGYGCPLIISVITIAVTQPSNTYKRKDVCWLNWSNGSKPLLAFVVPALAIVAVNFVVVLLVLTKLWRPTVGERLSRDDKATIIRVGKSLLILTPLLGLTWGFGIGTIVDSQNLAWHVIFALLNAFQGFFILCFGILLDSKLRQLLFNKLSALSSWKQTEKQNSSDLSAKPKFSKPFNPLQNKGHYAFSHTGDSSDNIMLTQFVSNE [ADGRF1]”, the “plasma membrane surface immunostaining intensity” value (GPCR class: B) was 466 ± 27.

“MLAAAFADSNSSSMNVSFAHLHFAGGYLPSDSQDWRTIIPALLVAVCLVGFVGNLCVIGILLHNAWKGKPSMIHSLILNLSLADLSLLLFSAPIRATAYSKSVWDLGWFVCKSSDWFIHTCMAAKSLTIVVVAKVCFMYASDPAKQVSIHNYTIWSVLVAIWTVASLLPLPEWFFSTIRHHEGVEMCLVDVPAVAEEFMSMFGKLYPLLAFGLPLFFASFYFWRAYDQCKKRGTKTQNLRNQIRSKQVTVMLLSIAIISALLWLPEWVAWLWVWHLKAAGPAPPQGFIALSQVLMFSISSANPLIFLVMSEEFREGLKGVWKWMITKKPPTVSESQETPAGNSEGLPDKVPSPESPASIPEKEKPSSPSSGKGKTEKAEIPILPDVEQFWHERDTVPSVQDNDPIPWEHEDQETGEGVK [GPR151]”: the “plasma membrane surface immunostaining intensity” value (GPCR class: A) was 5990 ± 230.

As for “MLESHLIIYFLLAVIQFLLGIFTNGIIVVVNGIDLIKHRKMAPLDLLLSCLAVSRIFLQLFIFYVNVIVIFFIEFIMCSANCAILLFINELELWLATWLGVFYCAKVASVRHPLFIWLKMRISKLVPWMILGSLLYVSMICVFHSKYAGFMVPYFLRKFFSQNATIQKEDTLAIQIFSFVAEFSVPLLIFLFAVLLLIFSLGRHTRQMRNTVAGSRVPGRGAPISALLSILSFLILYFSHCMIKVFLSSLKFHIRRFIFLFFILVIGIYPSGHSLILILGNPKLKQNAKKFLLHSKCCQ [TAS2R1]”, the “plasma membrane surface immunostaining intensity” value (GPCR class: Taste) was found to be 212 ± 85.

Regarding “MLGIMAWNATCKNWLAAEAALEKYYLSIFYGIEFVVGVLGNTIVVYGYIFSLKNWNSSNIYLFNLSVSDLAFLCTLPMLIRSYANGNWIYGDVLCISNRYVLHANLYTSILFLTFISIDRYLIIKYPFREHLLQKKEFAILISLAIWVLVTLELLPILPLINPVITDNGTTCNDFASSGDPNYNLIYSMCLTLLGFLIPLFVMCFFYYKIALFLKQRNRQVATALPLEKPLNLVIMAVVIFSVLFTPYHVMRNVRIASRLGSWKQYQCTQVVINSFYIVTRPLAFLNSVINPVFYFLLGDHFRDMLMNQLRHNFKSLTSFSRWAHELLLSFREK [SUCNR1]”, the “plasma membrane surface immunostaining intensity” value (GPCR class: A) stood at 528 ± 61.

In the case of “MLGLNHTSMSEFILVGFSAFPHLQLMLFLLFLLMYLFTLLGNLLIMATVWSERSLHTPMYLFLCVLSVSEILYTVAIIPRMLADLLSTQRSIAFLACASQMFFSFSFGFTHSFLLTVMGYDRYVAICHPLRYNVLMSPRGCACLVGCSWAGGSVMGMVVTSAIFQLTFCGSHEIQHFLCHVPPLLKLACGNNVPAVALGVGLVCIMALLGCFLLILLSYAFIVADILKIPSAEGRNKAFSTCASHLIVVIVHYGFASVIYLKPKGPHSQEGDTLMATTYAVLTPFLSPIIFSLRNKELKVAMKRTFLSTLYSSGT [OR10H2]”, the “plasma membrane surface immunostaining intensity” value (GPCR class: A (Olfactory)) was 112 ± 22.

Consider “MLGPAVLGLSLWALLHPGTGAPLCLSQQLRMKGDYVLGGLFPLGEAEEAGLRSRTRPSSPVCTRFSSNGLLWALAMKMAVEEINNKSDLLPGLRLGYDLFDTCSEPVVAMKPSLMFLAKAGSRDIAAYCNYTQYQPRVLAVIGPHSSELAMVTGKFFSFFLMPQVSYGASMELLSARETFPSFFRTVPSDRVQLTAAAELLQEFGWNWVAALGSDDEYGRQGLSIFSALAAARGICIAHEGLVPLPRADDSRLGKVQDVLHQVNQSSVQVVLLFASVHAAHALFNYSISSRLSPKVWVASEAWLTSDLVMGLPGMAQMGTVLGFLQRGAQLHEFPQYVKTHLALATDPAFCSALGEREQGLEEDVVGQRCPQCDCITLQNVSAGLNHHQTFSVYAAVYSVAQALHNTLQCNASGCPAQDPVKPWQLLENMYNLTFHVGGLPLRFDSSGNVDMEYDLKLWVWQGSVPRLHDVGRFNGSLRTERLKIRWHTSDNQKPVSRCSRQCQEGQVRRVKGFHSCCYDCVDCEAGSYRQNPDDIACTFCGQDEWSPERSTRCFRRRSRFLAWGEPAVLLLLLLLSLALGLVLAALGLFVHHRDSPLVQASGGPLACFGLVCLGLVCLSVLLFPGQPSPARCLAQQPLSHLPLTGCLSTLFLQAAEIFVESELPLSWADRLSGCLRGPWAWLVVLLAMLVEVALCTWYLVAFPPEVVTDWHMLPTEALVHCRTRSWVSFGLAHATNATLAFLCFLGTFLVRSQPGCYNRARGLTFAMLAYFITWVSFVPLLANVQVVLRPAVQMGALLLCVLGILAAFHLPRCYLLMRQPGLNTPEFFLGGGPGDAQGQNDGNTGNQGKHE [TAS1R3]”, for which, under “GPCR class: Taste”, the “plasma membrane surface immunostaining intensity” value came out at 122 ± 9.1.

In the case of “MLGPAYNHTMETPASFLLVGIPGLQSSHLWLAISLSAMYITALLGNTLIVTAIWMDSTRHEPMYCFLCVLAAVDIVMASSVVPKMVSIFCSGDSSISFSACFTQMFFVHLATAVETGLLLTMAFDRYVAICKPLHYKRILTPQVMLGMSMAVTIRAVTFMTPLSWMMNHLPFCGSNVVVHSYCKHIALARLACADPVPSSLYSLIGSSLMVGSDVAFIAASYILILRAVFDLSSKTAQLKALSTCGSHVGVMALYYLPGMASIYAAWLGQDIVPLHTQVLLADLYVIIPATLNPIIYGMRTKQLLEGIWSYLMHFLFDHSNLGS [OR52I1]”, under “GPCR class: A (Olfactory)”, the “plasma membrane surface immunostaining intensity” value came out at 157 ± 16.
